Assay results as given in article PMC7618200 (The Biochemical journal, 2025).

B1: MyD88 peptide 125AEKPLQVAAVDSSVPRT141 (17-mer) [human] / SPOP MATH domain (SPOP^MATH; residues 28-166) [human] (parent complex)
chain 1: AEKPLQVAAVDSSVPRT
chain 2: KVVKFSYMWTINNFSFCREEMGEVIKSSTFSSGANDKLKWCLRVNPKGLDEESKDYLSLYLLLVSCPKSEVRAKFKFSILNAKGEETKAMESQRAYRFVQGKDWGFKKFIRRDFLLDEANGLLPDDKLTLFCEVSVVQD

Variants of: B1
Assay: FP competition assay; competitor against fluorescently labeled Puc peptide

IC50 | Variant
~2110 µM | chain 1 AEKPLQVAAVAAAVPRT [chain 1 D11A, chain 1 S12A, chain 1 S13A]
